This is an account of results in patent US20210070881A1 (DENALI THERAPEUTICS, published 2021).

Assay [1] addresses T1, recombinant BACE1 (BACE1 extracellular domain, R&D Systems Cat#931-AS) (UniProt P56817 22-457).
T1 construct: extracellular domain; also called BACE1 extracellular domain protein
The experiment in a line: SPR Biacore.

In assay [2] the target is T1, recombinant BACE1 (BACE1 extracellular …). The experiment in a line: SPR Biacore. This is another data set of the same source. (Surface plasmon resonance follows binding to a sensor surface in real time, without labels.)
Assay [3] concerns the target BACE1 in primary human neurons (human, UniProt P56817 46-501). As to the kind of experiment: cell-based or functional assay.
The target of assay [4] is cellular BACE1 in CHOK1-huAPP cells. As to the kind of experiment: cell-based or functional assay.
Assay [5] deals with T1, recombinant BACE1 (BACE1 extracellular …). As to the kind of experiment: SPR Biacore T200, IgG captured, BACE1 analyte. The method, then: The affinity of chimeric IgG antibodies for recombinant BACE1 was determined by surface plasmon resonance using a Biacore™ T200 instrument. Biacore™ Series S CMS sensor chips were immobilized with monoclonal mouse anti-human IgG (Fc) antibody (e.g., using a human antibody capture kit from GE Healthcare). 1 μg/mL of antibody was captured for 1 minute on each flow cell and serial 3-fold dilutions of recombinant BACE1 were injected at a flow rate of 30 μL/min. Each sample was analyzed with a 3-minute association and a 10-minute dissociation. After each injection, the chip was regenerated using 3M MgCl₂. Binding response was corrected by subtracting the RU from a flow cell capturing an irrelevant IgG at similar density. A 1:1 Langmuir model of simultaneous fitting of kₒₙ and koff was used for analysis of kinetics.

Assay [6] deals with cellular BACE1 in CHOK1-huAPP cells. As to the kind of experiment: cell-based or functional assay. The source holds these as a separate data set.
For assay [7] the target is unchanged. The experiment in a line: cell-based or functional assay. The source holds these as a separate data set.
The target in assay [8] is T2, human TfR (human, UniProt P02786 89-760, limits assumed).
T2 construct: Protein coated on ELISA plates; also called human transferrin receptor protein 1
The experiment in a line: ELISA, TfR coated, Fab-Fc fusion. The method, then:
Binding ELISAs were conducted with purified Fab-Fc fusion variants with human or cyno TfR coated on the plate, as described above. The variants from the clone CH3C.18 maturation library, clone CH3C.3.2-1, clone CH3C.3.2-5, and clone CH3C.3.2-19, bound human and cyno TfR with approximately equivalent EC₅₀ values, whereas the parent clones CH3C.18 and CH3C.35 had greater than 10-fold better binding to human versus cyno TfR.

Assay [9] deals with T2, human TfR. The experiment in a line: soft-randomization libraries selected on TfR.
Assay [10] concerns the target cellular BACE1 in CHOK1-huAPP cells. As to the kind of experiment: cell-based or functional assay. This is another data set of the same source.

Numbering of substitutions follows the chain as printed. Where two headings read alike, the source gives them in different places.

T2 sequence (P02786 89-760 limits assumed): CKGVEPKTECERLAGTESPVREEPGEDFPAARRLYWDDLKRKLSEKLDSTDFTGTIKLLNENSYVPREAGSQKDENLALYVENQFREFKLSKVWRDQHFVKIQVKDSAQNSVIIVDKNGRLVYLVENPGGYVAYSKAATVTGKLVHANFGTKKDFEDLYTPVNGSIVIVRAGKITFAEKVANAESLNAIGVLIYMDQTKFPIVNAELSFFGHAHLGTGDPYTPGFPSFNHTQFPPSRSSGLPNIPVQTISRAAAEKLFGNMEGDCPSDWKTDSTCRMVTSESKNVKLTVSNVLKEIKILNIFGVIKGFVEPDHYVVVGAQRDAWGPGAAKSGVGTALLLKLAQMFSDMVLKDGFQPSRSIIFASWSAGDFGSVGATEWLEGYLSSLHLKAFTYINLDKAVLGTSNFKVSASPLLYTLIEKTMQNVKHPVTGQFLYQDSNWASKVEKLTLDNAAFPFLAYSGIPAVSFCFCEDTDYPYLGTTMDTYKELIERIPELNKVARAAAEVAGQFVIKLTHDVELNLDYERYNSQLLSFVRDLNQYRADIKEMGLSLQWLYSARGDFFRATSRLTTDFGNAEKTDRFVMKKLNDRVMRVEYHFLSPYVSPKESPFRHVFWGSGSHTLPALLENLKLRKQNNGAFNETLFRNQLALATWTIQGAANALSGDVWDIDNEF
T1 sequence (P56817 22-457): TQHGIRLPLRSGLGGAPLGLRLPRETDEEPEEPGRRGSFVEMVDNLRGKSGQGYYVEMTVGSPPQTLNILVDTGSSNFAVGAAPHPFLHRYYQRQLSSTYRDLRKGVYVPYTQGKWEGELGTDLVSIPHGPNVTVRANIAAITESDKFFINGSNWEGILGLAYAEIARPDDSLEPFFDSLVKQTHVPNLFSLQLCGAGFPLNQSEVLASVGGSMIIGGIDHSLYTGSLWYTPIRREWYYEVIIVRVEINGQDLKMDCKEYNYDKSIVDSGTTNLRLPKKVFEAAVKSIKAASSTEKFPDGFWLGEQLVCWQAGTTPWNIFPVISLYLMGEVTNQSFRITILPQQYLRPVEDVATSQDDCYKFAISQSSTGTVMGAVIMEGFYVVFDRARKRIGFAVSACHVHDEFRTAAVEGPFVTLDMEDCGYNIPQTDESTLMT
BACE1 in primary human neurons, sequence (P56817 46-501): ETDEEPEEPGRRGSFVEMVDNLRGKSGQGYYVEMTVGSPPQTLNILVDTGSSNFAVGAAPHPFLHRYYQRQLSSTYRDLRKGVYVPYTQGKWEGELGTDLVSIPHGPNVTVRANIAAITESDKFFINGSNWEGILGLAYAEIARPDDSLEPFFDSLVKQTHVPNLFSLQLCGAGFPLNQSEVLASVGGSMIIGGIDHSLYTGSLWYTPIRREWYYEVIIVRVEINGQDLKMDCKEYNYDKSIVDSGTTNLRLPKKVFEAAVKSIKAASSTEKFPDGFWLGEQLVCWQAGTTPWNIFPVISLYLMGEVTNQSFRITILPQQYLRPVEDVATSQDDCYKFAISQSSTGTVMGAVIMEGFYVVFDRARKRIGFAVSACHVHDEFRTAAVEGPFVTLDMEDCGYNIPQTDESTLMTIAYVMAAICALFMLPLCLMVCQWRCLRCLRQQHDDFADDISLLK

B1: 2H8 (antibody, human IgG1, V domains shown)
VH: EVQLQQSGPELVKPGASVKLSCKASGYTFTNFWIHWLKQRPGQGLEWIGMIDPSDSYTKYNQKFKAKATLTVDTSSSTTYMHLSSLTSEDSAVYYCARSGVAFPYWGQRTLVTVSA
VL: DIVMTQSQKFMSKSVGDTVSVTCKASQDVGRNVAWYQQKSGQSPKSLIYSASHRYSGVPDRFTGSGSGTDFTLTISNVQSEDLADYFCQQYNSYPYTFGGGTRLEIK
notes: chimeric, human IgG1/kappa; also called Clone 2H8; 2H8.01
Take B1: the Kd (usually the concentration at which binding is half-saturated) in assay [1] worked out at 0.0148 µM. In assay [2], the equilibrium dissociation constant (Kd) is 0.0148 µM; the koff (as a rule, a measure of how fast the partners let go of each other) is 0.000316 s⁻¹; the kon – broadly, the second-order rate constant of association – is 21400 M⁻¹ s⁻¹. For the same molecule, the “IC50 of Aβ40 formation, primary human neurons” value in assay [3] is 0.015 µM. In assay [4], the IC50 (usually the concentration needed to halve the response being measured) is 0.025 µM and the Max. % inhibition was 82%. In addition, in assay [5], the Kd came to 0.0063 µM, the koff stood at 0.00019 s⁻¹ and the on-rate constant (kon) worked out at 30000 M⁻¹ s⁻¹. In [6], the “% Max Inhibition” value amounted to 71% and the “Cellular IC50” value turned out to be 0.016 µM. Also, in assay [7], half-maximal inhibition (IC50) was put at 0.0248 µM and the Max. % inhibition was found to be 82%.

B2: Clone CH3C.3.2-1 (designed binder)
chain: APELLGGPSVFLFPPKPKDTLMISRTPEVTCVVVDVSHEDPEVKFNWYVDGVEVHNAKTKPREEQYNSTYRVVSVLTVLHQDWLNGKEYKCKVSNKALPAPIEKTISKAKGQPREPQVYTLPPSRDELTKNQVSLTCLVKGFYPSDIAVEWESLGHVWVNFKTTPPVLDSDGSFFLYSKLTVPKSTWQQGWVFSCSVMHEALHNHYTQKSLSLSPGK
notes: modified Fc polypeptide; tested as purified Fab-Fc fusion, Fab not identified
As to B2, the binding result with human TfR [8] was “binds”.

B3: Clone CH3C.17 (designed binder)
chain: B2 chain with L154Y, H156T, V159S, N160K, F161Y, P183S, T186E, W191F
notes: modified Fc polypeptide
Turning to B3, in the assay with human TfR [9], the binding result was “binds”.

B4: Clone CH3C.34 (designed binder)
chain: B2 chain with H156L, N160F, F161S
notes: modified Fc polypeptide
Regarding B4, the binding result in the assay with human TfR [9] is reported as “binds”.

B5: Clone CH3C.51 (designed binder)
chain: B2 chain with N160G, F161Y, P183S, T186E
notes: modified Fc polypeptide
Regarding B5, in the assay with human TfR [9], the binding result is recorded as “binds”.

B6: Clone CH3C.25 (designed binder)
chain: B2 chain with L154M, N160G, F161Y, P183D
notes: modified Fc polypeptide
As for B6, the binding result with human TfR [9] is listed as “binds”.

B7: Clone CH3C.44 (designed binder)
chain: B2 chain with L154Y, H156T, V157E, V159S, F161Y, P183S, T186E, W191F
notes: modified Fc polypeptide
Consider B7, for which the binding result in the assay with human TfR [9] is given as “binds”.

B8: Clone35.23.4:2H8/2H8 (antibody, V domains shown)
VH: QVQLVQSGAEVKKPGASVKVSCKASGYTFTNFWIHWVRQAPGQGLEWMGMIDPSSSYTKYNQKFKARATLTVDTSTSTVYMELSSLRSEDTAVYYCARSGASLPYWGQGTLVTVSS
VL: DIQMTQSPSSLSASVGDRVTITCKASQDVGRNVAWYQQKPGKSPKSLIYSASHYYSGVPSRFSGSGSGTDFTLTISSLQPEDFATYFCQQYYSYPYTFGQGTKVEIK
As for B8, the “cellular IC50 (human Aβ40, CHO-huAPP cells)” value in assay [10] came to 0.01 µM.
